The source of these data is US20260250410A1 (SICHUAN HUIYU PHARMACEUTICAL, published 2026).

Sequences and labels used below:
T1: HuCDCP1-C (human, UniProt Q9H5V8 30-667)
T1 construct: range 30-667; expressed in HEK-293T, purified by Fc/his tag; also called human CDCP1-C; full-length extracellular domain of human CDCP1; not shown: Fc or his tag
T1 sequence (looked up): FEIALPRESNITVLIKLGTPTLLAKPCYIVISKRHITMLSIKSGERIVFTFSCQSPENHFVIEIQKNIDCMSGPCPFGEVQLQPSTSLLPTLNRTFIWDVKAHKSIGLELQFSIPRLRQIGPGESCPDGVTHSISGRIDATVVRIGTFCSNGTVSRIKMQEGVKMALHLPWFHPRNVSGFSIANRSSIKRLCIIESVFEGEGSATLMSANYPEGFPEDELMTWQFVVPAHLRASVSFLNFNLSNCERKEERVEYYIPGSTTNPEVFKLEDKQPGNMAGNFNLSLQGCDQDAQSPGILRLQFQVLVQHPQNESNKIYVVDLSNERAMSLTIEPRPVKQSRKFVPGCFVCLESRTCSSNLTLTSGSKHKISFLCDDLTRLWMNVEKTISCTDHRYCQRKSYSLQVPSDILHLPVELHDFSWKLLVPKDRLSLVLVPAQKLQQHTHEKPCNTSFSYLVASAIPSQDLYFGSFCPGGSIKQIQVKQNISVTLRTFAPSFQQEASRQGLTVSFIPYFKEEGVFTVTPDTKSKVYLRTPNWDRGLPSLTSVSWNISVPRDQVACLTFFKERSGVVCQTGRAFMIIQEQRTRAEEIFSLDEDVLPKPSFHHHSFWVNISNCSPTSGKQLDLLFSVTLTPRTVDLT

B1: 1CP-156 (antibody, human IgG1, kappa, V domains shown)
VH: EVQLVESGGGLVQPGRSLRLSCTTSGLTFTHYHMSWVRQAPGKGLEWVAIIRNKAYGYTTDYSASVRGRFTISRDDSKSILYLQMNSLKTEDTAVYYCVREGGYGYDGTFAYWGQGTLVTVSS
VL: DIQMTQSPSSLSASVGDRVTITCRASESVDNYGISFMNWFQQKPGQPPKLLIYAASNQGSGVPSRFSGSGSGTDFTLTISSMQPEDFATYYCQQSKEVPRTFGGGTKVEIKR
notes: humanized 8C9, human IgG1 kappa
B2: 1CP-161 (antibody, human IgG1, kappa, V domains shown)
VH: B1 VH with L45P
VL: B1 VL with Y91F
notes: as for B1
B3: 1CP-159 (antibody, human IgG1, kappa, V domains shown)
VH: B1 VH with T24A, V37F
VL: B1 VL with Y91F
notes: as for B1
B4: 1CP-155 (antibody, human IgG1, kappa, V domains shown)
VH: B1 VH with T24A, V37F
VL: B1 VL
notes: as for B1
B5: 1CP-158 (antibody, human IgG1, kappa, V domains shown)
VH: B1 VH with A40P, G44A, L45P
VL: B1 VL
notes: as for B1
B6: 1CP-162 (antibody, human IgG1, kappa, V domains shown)
VH: B1 VH with A40P, G44A, L45P
VL: B1 VL with Y91F
notes: as for B1
B7: 1CP-153 (antibody, human IgG1, kappa, V domains shown)
VH: B1 VH with L45P
VL: B1 VL with P47A
notes: as for B1
B8: 1CP-154 (antibody, human IgG1, kappa, V domains shown)
VH: B1 VH with A40P, G44A, L45P
VL: B1 VL with P47A
notes: as for B1
B9: 1CP-160 (antibody, human IgG1, kappa, V domains shown)
VH: B1 VH
VL: B1 VL with Y91F
notes: as for B1
B10: 1CP-151 (antibody, human IgG1, kappa, V domains shown)
VH: B1 VH with T24A, V37F
VL: B1 VL with P47A
notes: as for B1
B11: 1CP-112 (antibody, human IgG1, kappa, V domains shown)
VH: QVQLVQSGSELKKPGASVKVSCKASGYTLTDFSMHWVRQAPGQGLEWMGWINTETGAPTYADDFKGRFVFSLDTSVSTAYLQISSLKAEDTAVYYCSRGRDYDPHFDYWGQGTLVTVSS
VL: EIVLTQSPATLSLSPGERATLSCRASQSISDFLHWYQQKPGQAPRLLIKYASQSISGIPARFSGSGPGSDFTLTISSVEPEDFAVYYCQSAHSFPYTFGQGTKLEIKR
notes: humanized 8E5, human IgG1 kappa
B12: 1CP-113 (antibody, human IgG1, kappa, V domains shown)
VH: B11 VH with F70L
VL: B11 VL
notes: as for B11
B13: 1CP-123 (antibody, human IgG1, kappa, V domains shown)
VH: B11 VH with V5Q, A16E, V20L, E46K, T78M, A88S
VL: B11 VL with P40S, A43S, P67S
notes: as for B11
B14: 1CP-120 (antibody, human IgG1, kappa, V domains shown)
VH: B11 VH
VL: B11 VL with P40S, A43S, P67S
notes: as for B11
B15: 1CP-118 (antibody, human IgG1, kappa, V domains shown)
VH: B11 VH with A16E, F70L, A88S
VL: B11 VL with A43S, P67S
notes: as for B11
B16: 1CP-114 (antibody, human IgG1, kappa, V domains shown)
VH: B11 VH with A16E, F70L, A88S
VL: B11 VL
notes: as for B11
B17: 1CP-116 (antibody, human IgG1, kappa, V domains shown)
VH: B11 VH
VL: B11 VL with A43S, P67S
notes: as for B11
B18: 1CP-119 (antibody, human IgG1, kappa, V domains shown)
VH: B11 VH with V5Q, A16E, V20L, E46K, T78M, A88S
VL: B11 VL with A43S, P67S
notes: as for B11
B19: 1CP-122 (antibody, human IgG1, kappa, V domains shown)
VH: B11 VH with A16E, F70L, A88S
VL: B11 VL with P40S, A43S, P67S
notes: as for B11
B20: 1CP-126 (antibody, human IgG1, kappa, V domains shown)
VH: QVQLVQSGAEVKKPGASVKVSCKASGYNFISYWLHWVRQAPGQGLEWMGGIYPGNTDTTYNQKFKGRVTMTADTSTSTAYMELSSLRSEDTAVYYCIRYDYDRGMDYWGQGTLVTVSS
VL: DIQMTQSPSSLSASVGDRVTITCRASEDIYYRLAWYQQKPGKAPKLLISGATALETGVPSRFSGSGSGKDYTFTISSLQPEDIATYYCQHYWNIPWTFGQGTKVEIKR
notes: humanized 3C11, human IgG1 kappa
B21: 1CP-131 (antibody, human IgG1, kappa, V domains shown)
VH: B20 VH with M70V, D73V, A79V
VL: B20 VL with F73L
notes: as for B20
B22: 1CP-135 (antibody, human IgG1, kappa, V domains shown)
VH: B20 VH with M70V, D73V, A79V
VL: B20 VL with K42N, F73L
notes: as for B20
B23: 1CP-132 (antibody, human IgG1, kappa, V domains shown)
VH: B20 VH with A72R, A79V
VL: B20 VL with K42N, F73L
notes: as for B20
B24: 1CP-133 (antibody, human IgG1, kappa, V domains shown)
VH: B20 VH with A79V
VL: B20 VL with K42N, F73L
notes: as for B20
B25: 1CP-127 (antibody, human IgG1, kappa, V domains shown)
VH: B20 VH with M70V, D73V, A79V
VL: B20 VL
notes: as for B20
B26: 1CP-134 (antibody, human IgG1, kappa, V domains shown)
VH: B20 VH
VL: B20 VL with K42N, F73L
notes: as for B20

Changes are numbered by the printed parent chain.

For this assay, the target named is T1, HuCDCP1-C. The experiment in a line: SPR (Caterra), antigen immobilized. On the procedure:
The humanized anti-CDCP1 antibodies obtained from Example 11 were subjected to gene cloning, constructed into pTT5 expression vector for a small amount of expression in CHO cells (Expi-CHOS: Gibco A29127), and purified with an Fc affinity column (AT Protein A Diamond Plus. No. AA402312). Antibody purity was analyzed by HPLC and determined by Nanodrop. High-throughput affinity assay was carried out for a small amount of antibodies by Caterra.
Consider B1, for which the Kd (as a rule, a measure of binding affinity in units of concentration) stood at 3.6 nM; the koff – broadly, a measure of how fast the partners let go of each other – worked out at 0.000441 s⁻¹; the kon (commonly the rate constant with which the complex forms) came to 123000 M⁻¹ s⁻¹.

The molecule B2 came in with a Kd of 3.21 nM, a koff of 0.000365 s⁻¹ and a kon of 114000 M⁻¹ s⁻¹.

The molecule B3 registered a Kd of 42.5 nM, a koff of 0.000767 s⁻¹ and an on-rate constant (kon) of 18000 M⁻¹ s⁻¹.

On to B4, for which the Kd turned out to be 36.6 nM, the koff came out at 0.000579 s⁻¹ and the kon came out at 15800 M⁻¹ s⁻¹.

For the molecule B5, the Kd amounted to 2.96 nM, the koff amounted to 0.000321 s⁻¹ and the kon amounted to 109000 M⁻¹ s⁻¹.

With B6, the Kd came to 2.7 nM, the koff worked out at 0.000305 s⁻¹ and the kon was 113000 M⁻¹ s⁻¹.

In the case of B7, the Kd stood at 3.58 nM, the koff is 0.000388 s⁻¹ and the kon is 108000 M⁻¹ s⁻¹.

As for B8, the affinity, expressed as Kd, was 2.92 nM; the koff worked out at 0.000346 s⁻¹; the kon was found to be 118000 M⁻¹ s⁻¹.

In turn, B9 showed a Kd of 3.8 nM, a koff of 0.00042 s⁻¹ and a kon of 110000 M⁻¹ s⁻¹.

B10 registered a Kd of 19.1 nM, a koff of 0.00302 s⁻¹ and a kon of 158000 M⁻¹ s⁻¹.

Molecule B11 yielded a Kd of 0.368 nM, a koff of 5e-05 s⁻¹ and a kon of 136000 M⁻¹ s⁻¹.

With B12, binding was characterised by a dissociation constant (Kd) of 0.411 nM, the koff was 5.9e-05 s⁻¹ and the kon was 143000 M⁻¹ s⁻¹.

Turning to B13, the Kd came to 11.4 nM, the koff was determined as 0.00227 s⁻¹ and the kon came to 199000 M⁻¹ s⁻¹.

Regarding B14, the Kd came out at 0.122 nM, the koff came to 1.7e-05 s⁻¹ and the kon was 139000 M⁻¹ s⁻¹.

As to B15, binding was put at a Kd of 13.4 nM, the koff is 0.00225 s⁻¹ and the kon came out at 168000 M⁻¹ s⁻¹.

Molecule B16 registered a Kd of 15.2 nM, a koff of 0.00246 s⁻¹ and a kon of 161000 M⁻¹ s⁻¹.

For B17, the Kd was found to be 0.359 nM, the koff is 4.59e-05 s⁻¹ and the kon was found to be 128000 M⁻¹ s⁻¹.

B18 registered a Kd of 5.51 nM, a koff of 0.00124 s⁻¹ and a kon of 226000 M⁻¹ s⁻¹.

Regarding B19, the Kd worked out at 12.5 nM, the koff came to 0.00209 s⁻¹ and the kon amounted to 167000 M⁻¹ s⁻¹.

The molecule B20 gave a Kd of 6.78 nM, a koff of 0.00143 s⁻¹ and a kon of 211000 M⁻¹ s⁻¹.

B21 displayed a Kd of 10.5 nM, a dissociation rate constant (koff) of 0.002 s⁻¹ and a kon of 191000 M⁻¹ s⁻¹.

Turning to B22, the Kd worked out at 4.8 nM, the koff came out at 0.0012 s⁻¹ and the on-rate constant (kon) was determined as 249000 M⁻¹ s⁻¹.

Molecule B23 displayed a Kd of no more than 0.0713 nM, a koff of no more than 1e-05 s⁻¹ and a kon of 140000 M⁻¹ s⁻¹.

For the molecule B24, the Kd was no more than 0.0546 nM, the koff is no more than 1e-05 s⁻¹ and the kon was found to be 183000 M⁻¹ s⁻¹.

B25 displayed a Kd of 9.66 nM, a koff of 0.00198 s⁻¹ and a kon of 205000 M⁻¹ s⁻¹.

Molecule B26 displayed a Kd of 10.5 nM, a koff of 0.00202 s⁻¹ and a kon of 193000 M⁻¹ s⁻¹.
